# Reference: patent publication US20130041138A1, “ANTIBODIES THAT BIND TO PSCA PROTEINS FOR DIAGNOSIS OF CANCER” (priority 2003, published 2013)
# B1: Ha1-4.37: fully human gamma 1 anti-PSCA monoclonal antibody from XenoMouse; ATCC PTA-6702; sequences FIG. 2P-2Q (antibody, V domains shown)
# VH: CPGALQESGPGLVRPSQTLSLTCTVSGGSISSGGTYYWIWIRQHPGKGLEWIGYIYYSGSTYYNPSLKSRVTISVDTSKNQFSLKLSSVTAADTAVYYCARDGITMVRGISGGMDVWGQGTTVTVSSASTKGPSVKGPSVF
# VL: ASVGDRVTITCRASQSISSHLNWYQQKPGKAPKLLIYAASSLQSGVPSRFSGSGSGTDFTLSISSLQPEDFATYFCQQSYSIPRTFGQGTKVEITRTVAAPSVFIFPPSDEQLKSGTASVVCLLNNFYPREAKVQWKVDNALQSG
# B2: Ha1-5.99: fully human gamma 2 anti-PSCA monoclonal antibody from XenoMouse; ATCC PTA-6703; sequences FIG. 2E-2F (antibody, V domains shown)
# VH: QVHLQQWGAGLLKPSETLSLTCAVYGGSFSGYYWSWIRQPPGKGLEWIGEINHSGSTSYKPSLKSRVTVSVDTSKNQFSLKLSYVTAADTAVYYCARDRGDYGDFLFDYWGQGTLVTVSSASTKGPSVFPLAPSSKST
# VL: SPGERATLSCRASQSIGSTYLAWYQQKPGQAPRLLIYGASSRATGIPERFSGSGSGTDFTLTISGLEPEDFAVFYCQQCGSSPPTFGQGTKVEIKRTVAAPSVFIFPPSDEQLKSGTASVVCLLNNFYPREAKVQWKVDNA
# Assays:
# [1] = system: SW780 human bladder tumors; assay: Subcutaneous SW780 bladder tumor xenograft; type: in vivo, ICR SCID mice; settings: 250 mg/mouse i.p. two times a week, 7 doses, from day of injection; t test
# Procedure: (§1) FIG. 27. Human PSCA MAbs Inhibit the Growth of SW780 Bladder Tumors in SCID Mice. Human SW780 bladder cancer cells (2×10^6/mouse) were injected subcutaneously into immunodeficient ICR SCID mice (Taconic Farm, Germantown, N.Y.). The mice were randomized into groups (n=10 animals/group) and treatment with the indicated human PSCA MAb initiated the same day. Antibodies (250 mg/mouse) were delivered intraperitoneally two times a week for a total of 7 doses. […] Statistical analyses were performed using at test (two-sided, α=0.05).
# as §1, with “In another experiment,” for “FIG. 27. Human PSCA MAbs Inhibit the Growth of SW780 Bladder Tumors in SCID Mice.”, “α=0.05) (FIG. 27).” for “α=0.05).”
# [2] = biological target: T1, cell surface PSCA on PSCA-expressing cells (endogenous or recombinant) (Homo sapiens, UniProt O43653); assay: PSCA human MAb screening by FACS; type: binding
# T1 construct: host or cells: PSCA-expressing cells (endogenous or recombinant)
# Procedure: FIGS. 9A and 9B. Screening for human PSCA antibodies by FACS. Antibody concentration from supernatants was determined by ELISA. 50 ul/well of (neat) was added to 96-well FACS plates and serially diluted. PSCA-expressing cells were added (endogenous or recombinant, 50,000 cells/well) and the mixture incubated at 4° C. for two hours. Following incubation, the cells were washed with FACS Buffer and further incubated with 100 ul of detection antibody (anti-hIgG-PE) for 45 minutes at 4° C. At the end of incubation, the cells were washed with FACS Buffer, fixed with formaldehyde and analyzed using FACScan. Data were analyzed using CellQuest Pro software. Solid histograms represent data from negative control cells and open histograms indicate data from PSCA-positive cells.
# Primary hybridoma screening for MAbs to PSCA was performed by FACS. The protocol was as follows: 50 ul/well of hybridoma supernatant (neat) or purified antibodies (in serial dilutions) were added to 96-well FACS plates and mixed with PSCA-expressing cells (endogenous or recombinant, 50,000 cells/well). The mixture was incubated at 4° C. for two hours. At the end of incubation, the cells were washed with FACS Buffer and incubated with 100 ul of detection antibody (anti-hIgG-PE) for 45 minutes at 4° C. At the end of incubation, the cells were washed with FACS Buffer, fixed with Formaldehyde and analyzed using FACScan. Data were analyzed using CellQuest Pro software. Filled histograms indicate data from negative control cells, and open histograms represent data from PSCA-positive cells (FIG. 9).
# Positive hybridomas identified from primary screens were transferred to 24-well plates and supernatants collected for confirmatory screens. Confirmatory screens included FACs analysis on B300.19-PSCA/300.19-neo, Rat1-PSCA/Rat1-neo, PC3-PSCA/neo, SW780 (bladder cancer cell line), LAPC9AI (prostate cancer cell line), HPAC (pancreatic cancer cell line), and ELISA assay using Tag5-PSCA, GST-PSCA, GST-PSCA N-term, Med. C-Term, and pET-PSCA.
# [3] = system: LAPC-9AI androgen-independent human prostate cancer xenografts; assay: Established subcutaneous LAPC-9AI prostate cancer xenograft; type: in vivo, SCID mice; settings: treatment from tumor volume 50 mm3, i.p. twice weekly, 5 doses until day 14; p<0.05
# Procedure: FIG. 19. PSCA MAb Ha1-5.99 Inhibits the Growth of Established Prostate Cancer Xenografts in SCID mice. LAPC-9AI tumor cells (2.0×10^6 cells) were injected subcutaneously into male SCID mice. When tumor volume reached 50 mm3, the mice were randomized into groups (n=10 in each group) and treatment initiated intraperitoneally (i.p.) with HA1-5.99.1 or isotype MAb control as indicated. Animals were treated twice weekly for a total of 5 doses until study day 14. Tumor growth was monitored using caliper measurements every 3 to 4 days as indicated.
# In another experiment, LAPC-9AI tumor cells (2.0×10^6 cells) were injected subcutaneously into male SCID mice. When tumor volume reached 50 mm3, the mice were randomized into groups (n=10 in each group) and treatment initiated intraperitoneally (i.p.) with HA1-5.99.1 or isotype MAb control as indicated Animals were treated twice weekly for a total of 5 doses until study day 14. Tumor growth was monitored using caliper measurements every 3 to 4 days as indicated. […] (FIG. 19).
# [4] = system: B300.19-PSCA expressing cells; assay: Complement mediated cytotoxicity; type: cell-based; settings: 0-50 μg/ml antibody, rabbit complement serum, 2 hr 37° C., Alamar Blue
# Procedure: (§2) FIG. 14. Complement mediated cytotoxicity of PSCA Mabs. PSCA antibodies (0-50 μg/ml) were diluted with RHB buffer (RPMI 1640, Gibco Life Technologies, 20 mM HEPES). B300.19-PSCA expressing cells were washed in RHB buffer and resuspended at a density of 10^6 cells/ml. In a typical assay, 50 μl of PSCA antibody, 50 μl of diluted rabbit complement serum (Cedarlane, Ontario, Can), and 50 μl of a cell suspension were added together into a flat-bottom tissue culture 96-well plate. The mixture was incubated for 2 hr. at 37° C. in a 5% CO2 incubator to facilitate complement-mediated cell lysis. […] The fluorescence in each well was read using a 96-well fluorometer with excitation at 530 nm and emission at 590 nm.
# as §2, with “PSCA” for “FIG. 14. Complement mediated cytotoxicity of PSCA”, “antibodies were evaluated to determine their ability to mediate immune dependent cytotoxicity.” for “Mabs.”, “plate.” for “plate. The mixture was incubated for 2 hr. at 37° C. in a 5% CO2 incubator to facilitate complement-mediated cell lysis.”
binding to endogenous cell surface PSCA ([2]; PSCA expressed in prostate cancer xenograft cells),Molecule,inhibition of subcutaneous tumor growth [1],react and bind with cell surface or immobilized PSCA [2],inhibition of growth of established subcutaneous tumors [3],complement dependent lysis of target cells [4]
,B1,significantly inhibited the growth,react and bind with cell surface or immobilized PSCA,,
bind endogenous cell surface PSCA,B2,significantly inhibited the growth,react and bind with cell surface or immobilized PSCA,significantly inhibited the growth,able to mediate complement dependent lysis
